Measured values: patent US20260008815A1, “CYCLIC PEPTIDE OR SALT THEREOF, AND USES THEREOF” (FUJIFILM Corporation, priority 2023, published 2026)
Numbered stars: 1 amine (or outer) side, 2 acyl side, 3 side chain; on linkers, the order of the positions; unused ones are H or OH. Bridge positions count the residues as written; N and C are the ends. Ends that are not written are not given here. acetyl = acetyl (haloacetyl before ring closure) on the side-chain amine, O=C(C[*:1])[*:2]; COCH2 = acetyl group that carries the bridge

What follows are substances tested against T1, Recombinant Human FGFR2 alpha (IIIc) Fc Chimera Protein (Homo sapiens, UniProt P21802) (assay: ELISA binding affinity of enzymatically synthesized peptide to FGFR). Settings: ELISA luminescence signal at 10 nmol/L peptide, SEQ ID NO: 47 at 10 nmol/L standardized to 1; enzyme synthesis product.
T1 construct: Fc (chimera); purchased R&D systems 712-FR-050
Protocol: The binding affinity of the peptide to FGFR was evaluated using an ELISA method.
The binding affinity of the enzymatically synthesized peptide to FGFR was measured by evaluating the amount of the peptide bound to FGFR by ELISA.
First, 5 ng of Recombinant Human FGFR2 alpha (IIIc) Fc Chimera Protein (R&D systems, 712-FR-050) was immobilized in each well of a 96-well plate, and blocked with Pierce Protein-Free (PBS) Blocking Buffer (Thermo, 37572), and a peptide diluted with Can Get Signal Immunoreaction Enhancer Solution I (TOYOBO, NKB-101) was then added and reacted at room temperature for 3 hours. After washing with 0.05% Tween 20-containing phosphate buffered saline (PBS), an anti-Myc antibody (Cell Signaling, 14038S) diluted with Can Get Signal Immunoreaction Enhancer Solution II (TOYOBO, NKB-101) was added and reacted at room temperature for 2 hours. After washing with 0.05% Tween 20-containing PBS, SuperSignal ELISA Femto Substrate (Thermo, 37075) was added, and the luminescence amount was measured. The dose-response relationship was calculated from using the difference between the luminescence amount in the well in which FGFR was immobilized and the luminescence amount in the well in which FGFR was not immobilized, and the concentration of the peptide at the time of reaction, and the binding affinity to FGFR was evaluated according to the following evaluation criteria. The evaluation result preferably satisfies the evaluation criteria A, B, or C.
In a case where a value of a luminescence signal emitted by the cyclic peptide set forth in SEQ ID NO: 47 at a reaction concentration of 10 nmol/L is standardized to 1, evaluation criteria of the luminescence signal value emitted by the cyclic peptide at a reaction concentration of 10 nmol/L is as follows. • A: 0.7 or more • B: 0.5 or more and less than 0.7 • C: 0.1 or more and less than 0.5 • D: less than 0.1.

T1 sequence (P21802 with tags, fused parts or gaps limits assumed): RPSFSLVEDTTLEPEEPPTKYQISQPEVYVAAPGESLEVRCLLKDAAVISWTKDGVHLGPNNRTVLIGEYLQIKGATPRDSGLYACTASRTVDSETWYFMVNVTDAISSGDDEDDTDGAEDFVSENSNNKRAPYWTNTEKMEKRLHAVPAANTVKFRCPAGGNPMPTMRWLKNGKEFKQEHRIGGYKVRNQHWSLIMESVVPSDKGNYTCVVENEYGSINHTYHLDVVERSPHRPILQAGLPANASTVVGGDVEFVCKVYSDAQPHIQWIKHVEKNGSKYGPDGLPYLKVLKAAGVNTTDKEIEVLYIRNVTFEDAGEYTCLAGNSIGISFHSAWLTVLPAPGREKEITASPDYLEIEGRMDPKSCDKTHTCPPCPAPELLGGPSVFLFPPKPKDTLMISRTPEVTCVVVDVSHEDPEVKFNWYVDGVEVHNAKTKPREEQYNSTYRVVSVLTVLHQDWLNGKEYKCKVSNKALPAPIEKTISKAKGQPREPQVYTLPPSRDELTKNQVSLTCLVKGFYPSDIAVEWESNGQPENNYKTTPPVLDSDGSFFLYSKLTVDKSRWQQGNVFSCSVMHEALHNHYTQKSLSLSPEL

| Evaluation result of binding affinity to FGFR | Substance |
| --- | --- |
| A (0.7 or more) | 267 (YCEENYLDPEQYDYFIYFK(COCH2)Y; thioether 2-19) [compound 267] |
| C (0.1 or more and less than 0.5) | 204 (YCEENYEDPEQYQYFIYFK(COCH2)Y; thioether 2-19 (inferred)) [compound 204] |
| A (0.7 or more) | 163 (YCDENYLDPEQYQYFIYFK(COCH2)Y; thioether 2-19 (inferred)) [compound 163] |
| C (0.1 or more and less than 0.5) | 200 (YCEENYNDPEQYQYFIYFK(COCH2)Y; thioether 2-19 (inferred)) [compound 200] |
| A (0.7 or more) | 55 (KCPANFINPVQWRYFQHYK(COCH2)N; thioether 2-19 (inferred)) [compound 55] |
| A (0.7 or more) | 84 (ECPQNFINPVQWRYFQHYK(COCH2)N; thioether 2-19 (inferred)) [compound 84] |
| A (0.7 or more) | 333 (YCEENYLDPEQYQYFIAFK(COCH2)Y; thioether 2-19 (inferred)) [compound 333] |
| A (0.7 or more) | 83 (DCPQNFINPVQWRYFQHYK(COCH2)N; thioether 2-19 (inferred)) [compound 83] |
| A (0.7 or more) | 54 (KCAQNFINPVQWRYFQHYKN; Description of Artificial Sequence: Cyclic peptide) [compound 54] |
| C (0.1 or more and less than 0.5) | 412 (QCEYALQYYRFYVAQRHWVDKL; Description of Artificial Sequence: Cyclic peptide) [compound 412] |
| C (0.1 or more and less than 0.5) | 422 (YCTQEQAFRQLAYYQIFRRSK(COCH2)S; thioether 2-21 via acetyl) [compound 422] |
| A (0.7 or more) | 223 (YCEENYLDIEQYQYFIYFK(COCH2)Y; thioether 2-19 (inferred)) [compound 223] |
| A (0.7 or more) | 206 (YCEENYHDPEQYQYFIYFK(COCH2)Y; thioether 2-19 (inferred)) [compound 206] |
| A (0.7 or more) | 316 (YCEENYLDPEQYQYFIYFK(COCH2)S; thioether 2-19 (inferred)) [compound 316] |
| A (0.7 or more) | 136 (GCEENYLDPEQYQYFIYFK(COCH2)Y; thioether 2-19 (inferred)) [compound 136] |
| A (0.7 or more) | 332 (YCEENYLDPEQYQYFAYFK(COCH2)Y; thioether 2-19 (inferred)) [compound 332] |
| C (0.1 or more and less than 0.5) | 340 (YCEENYLKPEQYQYFIYFK(COCH2)Y; thioether 2-19) [compound 340] |
| A (0.7 or more) | 270 (YCEENYLDPEQYHYFIYFK(COCH2)Y; thioether 2-19) [compound 270] |
| A (0.7 or more) | 395 (YCHENYLDPEQYQYFHYFK(COCH2)H; thioether 2-19 (inferred)) [compound 395] |
| C (0.1 or more and less than 0.5) | 365 (LCYLYQYLYQAK(COCH2)F; thioether 2-12) [compound 365] |
| C (0.1 or more and less than 0.5) | 98 (QCPQTFINPVQWRYFQHYK(COCH2)N; thioether 2-19) [compound 98] |
| B (0.5 or more and less than 0.7) | 70 (KCAPQNFINPVQWRYFQHYK(COCH2)N; thioether 2-20 (inferred)) [compound 70] |

| Evaluation result of binding affinity to FGFR | Substance |
| --- | --- |
| A (0.7 or more) | 178 (YCEDNYLDPEQYQYFIYFK(COCH2)Y; thioether 2-19 (inferred)) [compound 178] |
| A (0.7 or more) | 343 (YCEENYLDPEQYKYFIYFK(COCH2)Y; thioether 2-19) [compound 343] |
| A (0.7 or more) | 230 (YCEENYLDSEQYQYFIYFK(COCH2)Y; thioether 2-19 (inferred)) [compound 230] |
| C (0.1 or more and less than 0.5) | 69 (KCPQNFINPVQWRYFQHYAKN; not fully specified; also: cyclic peptide, ring places not shown) [compound 69] |
| A (0.7 or more) | 301 (YCEENYLDPEQYQYFITFK(COCH2)Y; thioether 2-19 (inferred)) [compound 301] |
| C (0.1 or more and less than 0.5) | 355 (YCEENYLDPEQMQYFIYFK(COCH2)Y; thioether 2-19) [compound 355] |
| A (0.7 or more) | 397 (YCEENYLDPEQHQYFIYFK(COCH2)H; thioether 2-19 (inferred)) [compound 397] |
| A (0.7 or more) | 310 (YCEENYLDPEQYQYFIYFK(COCH2)I; thioether 2-19 (inferred)) [compound 310] |
| A (0.7 or more) | 289 (YCEENYLDPEQYQYFRYFK(COCH2)Y; thioether 2-19) [compound 289] |
| C (0.1 or more and less than 0.5) | 363 (LCYLYQYIYTAK(COCH2)F; thioether 2-12) [compound 363] |
| C (0.1 or more and less than 0.5) | 388 (RCHHNFHHARQHGFFYHYK(COCH2)R; thioether 2-19 (inferred)) [compound 388] |
| A (0.7 or more) | 243 (YCEENYLDPWQYQYFIYFK(COCH2)Y; thioether 2-19 (inferred)) [compound 243] |
| A (0.7 or more) | 224 (YCEENYLDVEQYQYFIYFK(COCH2)Y; thioether 2-19 (inferred)) [compound 224] |
| C (0.1 or more and less than 0.5) | 102 (QCPQNFINPVQVRYFQHYK(COCH2)N; thioether 2-19 (inferred)) [compound 102] |
| A (0.7 or more) | 196 (YCEENYVDPEQYQYFIYFK(COCH2)Y; thioether 2-19 (inferred)) [compound 196] |
| A (0.7 or more) | 286 (YCEENYLDPEQYQYFTYFK(COCH2)Y; thioether 2-19) [compound 286] |
| A (0.7 or more) | 358 (YCEENYLDPEQYQYFMYFK(COCH2)Y; thioether 2-19) [compound 358] |
| A (0.7 or more) | 352 (YCEENYLMPEQYQYFIYFK(COCH2)Y; thioether 2-19) [compound 352] |
| A (0.7 or more) | 268 (YCEENYLDPEQYEYFIYFK(COCH2)Y; thioether 2-19) [compound 268] |
| A (0.7 or more) | 161 (YCSENYLDPEQYQYFIYFK(COCH2)Y; thioether 2-19 (inferred)) [compound 161] |
| C (0.1 or more and less than 0.5) | 271 (YCEENYLDPEQYQIFIYFK(COCH2)Y; thioether 2-19) [compound 271] |
| A (0.7 or more) | 153 (YCLENYLDPEQYQYFIYFK(COCH2)Y; thioether 2-19 (inferred)) [compound 153] |
